Laboratory results from patent US20040018957A1, “Crystal structure of a Ras-P13K complex” (priority 2000, published 2004).

Assays:
PI3K = target: T1, PI3K (Homo sapiens, UniProt P48736); experiment: Steady state and kinetic measurements of mant-ATP and mant-ADP binding; details: FIG. 2C
T1 construct: a construct containing residues 144-1102 of the human PI3Kγ with a C-terminal His6 tag; His6 (C); made in house; host or cells: Sf9 insect cells (baculovirus, pVL1393)
Procedure: Equilibrium binding of mant-ATP to PI3K was measured in a SLM 8000 S spectrofluorimeter with λex=280 nm and […]. This allowed monitoring of energy transfer from tryptophan in the PI3K to mant-ATP. Mant-ATP was titrated into a 1 μM solution of PI3K in running buffer. Each data point represents the average of data collected for 30 seconds with a 1 second integration time. For data collected in the presence of Ras, the solution also contained 6 μM H-ras.GMPPNP. The data were fitted to the binding equation with Kaleidagraph.
All kinetic data were collected in a Hi-Tech Na61 instrument set up in the single push mode with λex=280 nm and emission monitored with 399 nm cutoff filters. A solution of PI3K was mixed a solution of mant-ATP such that the final PI3K concentration was 1 μM and the ATP concentrations were 2.5, 5. 7.5, 10, 12.5, and 25 μM. The displacement experiment was carried out by mixing 1 μM PI3K and 2 μM mant-ATP with 50 or 200 μM ATP. Curve fits were carried out with the Hi-Tech software and Kaleidagraph. Equilibrium and kinetic data for mant-ADP were collected by the same methods.

N-Ras.mant-GMPPNP [1] = target: T2, N-Ras.mant-GMPPNP (Homo sapiens, UniProt P01111); experiment: Stopped flow anisotropy, association and dissociation kinetics; type: binding; details: 20° C.
T2 construct: fluorescence anisotropy of full length, unmodified N-Ras.mant-GMPPNP
Procedure: A Hi-Tech MX61 instrument (Hi-Tech, Salisbury) set up in the T-format with prism polarizers was used to collect data at 20° C. The mant group was excited at 366 nm and emission monitored through 399 nm cutoff filters. The association kinetics were followed by rapid mixing of PI3Kγ with 1 μM N-Ras.mant-GMPPNP under pseudo first-order conditions (PI3Kγ in large excess). Specifically, equal proportions of N-Ras and PI3Kγ were mixed to a final Ras concentration of 1 μM and final PI3Kγ concentrations of 5 and 10 μM. The dissociation rate was measured by mixing a solution of 1 μM N-Ras.mant-GMPPNP and 5 μM PI3K with 9 μM N-Ras.GMPPNP. Attempts to determine association rates at higher PI3K concentrations were limited by solubility of the protein. Data were fitted to single exponential curves within the Hi-Tech software.
Target sequence in this assay (P01111 whole entry): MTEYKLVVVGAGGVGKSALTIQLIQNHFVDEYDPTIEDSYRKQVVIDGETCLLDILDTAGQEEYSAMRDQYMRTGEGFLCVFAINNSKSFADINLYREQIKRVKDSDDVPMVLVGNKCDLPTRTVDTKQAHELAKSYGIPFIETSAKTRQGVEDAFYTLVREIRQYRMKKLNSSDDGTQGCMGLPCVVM
Target sequence in this assay (P48736 144-1102 partner limits assumed): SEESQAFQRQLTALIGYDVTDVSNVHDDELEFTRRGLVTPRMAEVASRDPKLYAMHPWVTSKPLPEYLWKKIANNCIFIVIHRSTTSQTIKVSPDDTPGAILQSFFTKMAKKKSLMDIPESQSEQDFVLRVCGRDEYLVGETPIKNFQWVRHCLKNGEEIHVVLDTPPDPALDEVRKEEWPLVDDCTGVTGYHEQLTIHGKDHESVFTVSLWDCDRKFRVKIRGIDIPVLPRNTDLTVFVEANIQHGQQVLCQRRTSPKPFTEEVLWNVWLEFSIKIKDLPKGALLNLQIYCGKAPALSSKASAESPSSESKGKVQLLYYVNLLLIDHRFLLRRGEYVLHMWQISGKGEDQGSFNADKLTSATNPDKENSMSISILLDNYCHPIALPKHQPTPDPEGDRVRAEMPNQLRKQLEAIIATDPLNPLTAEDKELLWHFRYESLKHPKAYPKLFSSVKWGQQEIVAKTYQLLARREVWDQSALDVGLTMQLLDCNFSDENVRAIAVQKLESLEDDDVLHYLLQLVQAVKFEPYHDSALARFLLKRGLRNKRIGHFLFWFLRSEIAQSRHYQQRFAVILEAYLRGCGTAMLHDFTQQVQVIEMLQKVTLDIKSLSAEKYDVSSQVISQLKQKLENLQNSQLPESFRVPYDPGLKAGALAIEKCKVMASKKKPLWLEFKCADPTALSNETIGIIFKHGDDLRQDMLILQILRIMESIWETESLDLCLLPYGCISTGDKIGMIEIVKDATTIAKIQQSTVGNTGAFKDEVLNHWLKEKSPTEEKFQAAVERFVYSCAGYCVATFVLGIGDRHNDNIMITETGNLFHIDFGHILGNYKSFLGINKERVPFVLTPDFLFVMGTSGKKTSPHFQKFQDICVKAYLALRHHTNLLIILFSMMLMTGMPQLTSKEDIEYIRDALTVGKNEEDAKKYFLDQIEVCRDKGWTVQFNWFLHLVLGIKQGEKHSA

wild type H-Ras = wild type H-Ras (Homo sapiens, UniProt P01112); experiment: Fluorescence anisotropy titration of PI3Kγ with H-Ras; type: binding
Sequence of wild type H-Ras (P01112 whole entry): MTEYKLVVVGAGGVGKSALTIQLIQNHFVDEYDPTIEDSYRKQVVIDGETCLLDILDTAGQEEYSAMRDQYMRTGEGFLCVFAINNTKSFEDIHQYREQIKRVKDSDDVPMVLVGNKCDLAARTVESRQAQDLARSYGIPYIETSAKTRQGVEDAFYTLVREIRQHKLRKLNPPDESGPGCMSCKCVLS
Sequence of wild type H-Ras (P48736 144-1102 partner limits assumed): as the sequence (P48736 144-1102 partner limits assumed) above
Procedure: (§1) Mant-nucleotides were synthesised as described previously (Jameson and Eccleston, 1997). N-Ras and H-Ras mutants were loaded with mant-GMPPNP as in (Moore et al., 1993), gel filtered into running buffer (20 mM Tris pH 7.5, 2 mM MgCl2, 1 mM DTT), and frozen at −80° C. The concentration of Ras.mant-GMPPNP was determined by measuring the absorbance of the mant group at […] with ε=5700 M^−1 cm^−1 (Hiratsuka, 1983). For binding assays, the 144-1102 human PI3Kγ was titrated into a 1 μM solution of fill length, unmodified N-Ras.mant-GMPPNP. Data were collected with SLM 8000 S and ISS PC1 spectrofluorimeters, set up in the T-format and L-format, respectively, with prism polarizers. All measurements were taken at 20° C. with a λex of 366 nm. Both emission PMTs were fitted with 399 nm cutoff filters. Five measurements of each data point were obtained and averaged. Data were fitted to the binding equation.

N-Ras.mant-GMPPNP [2] = target: T2, N-Ras.mant-GMPPNP; experiment: Fluorescence anisotropy titration of PI3Kγ 144-1102 into N-Ras.mant-GMPPNP; type: binding; details: fluorescence anisotropy, 20° C., 1 μM N-Ras.mant-GMPPNP
Procedure: as §1
Target sequence in this assay (P01111 whole entry): as the sequence (P01111 whole entry) above

N-Ras.GDP = N-Ras.GDP (Homo sapiens, UniProt P01111); experiment: Binding of PI3Kγ constructs to N-Ras.GDP
Sequence of N-Ras.GDP (P01111 whole entry): as above

T1 sequence (P48736 144-1102): as the sequence (P48736 144-1102 partner limits assumed) above

Substance | nucleotide release from PI3Kγ (PI3K) | observed rate constant of the Ras.PI3K complex (single-exponential fit) (N-Ras.mant-GMPPNP [1]) [s⁻¹] | Kd (wild type H-Ras) [µM] | Kd (N-Ras.mant-GMPPNP [2]) [µM] | binding to N-Ras.GDP (N-Ras.GDP)
mant-ADP | slower than mant-ATP release |  |  |  | 
wild type PI3Kγ: residues 144-1102 of human PI3Kγ with a C-terminal His6 tag |  | 18 | 3.2 ± 0.5 | 2.8 ± 0.4 | Neither the wild-type protein, the pseudo wild-type (V327A, see methods), nor the V223K mutant exhibit detectable binding
